According to the supplement of paper PMC11246515:
± gives the standard deviation of the averaged measurements.

Experiment: total protein half-life in vivo (active degradation + dilution); higher = more stable protein
[1] = E. coli NCM3722 delta-clpP delta-lon delta-hslV, growth: N-lim chemostat, doubling time 6 h
[2] = E. coli NCM3722 delta-lon, growth: N-lim chemostat, doubling time 6 h
[3] = E. coli NCM3722 delta-smpB, growth: N-lim chemostat, doubling time 6 h
[4] = wild type E. coli NCM3722, growth: C-lim chemostat, doubling time 3 h
[5] = wild type E. coli NCM3722, growth: C-lim chemostat, doubling time 6 h
[6] = wild type E. coli NCM3722, growth: C-lim chemostat, doubling time 12 h
[7] = wild type E. coli NCM3722, growth: N-lim chemostat, doubling time 6 h
[8] = wild type E. coli NCM3722, growth: N-lim chemostat, doubling time 12 h
[9] = wild type E. coli NCM3722, growth: P-lim chemostat, doubling time 6 h
[10] = wild type E. coli NCM3722, growth: P-lim chemostat, doubling time 12 h
[11] = E. coli NCM3722 delta-clpP, growth: N-lim chemostat, doubling time 6 h
[12] = E. coli NCM3722 delta-hslV, growth: N-lim chemostat, doubling time 6 h

MFKSTLAAMAAVFALSALSPAAMAAKGDPHVLLTTSAGNIELELDKQKAPVSVQNFVDYVNSGFYNNTTFHRVIPGFMIQGGGFTEQMQQKKPNPPIKNEADNGLRNTRGTIAMARTADKDSATSQFFINVADNAFLDHGQRDFGYAVFGKVVKGMDVADKISQVPTHDVGPYQNVPSKPVVILSAKVLP [P0AFL3]
total protein half-life in vivo [1]: 5.17 ± 0.94 h
total protein half-life in vivo [2]: 6.04 ± 0.29 h
total protein half-life in vivo [3]: 5.59 ± 0.8 h
total protein half-life in vivo [4]: 3.1 ± 0.19 h
total protein half-life in vivo [5]: 4.98 ± 0.6 h
total protein half-life in vivo [6]: 8.28 ± 1.4 h
total protein half-life in vivo [7]: 5.46 ± 0.15 h
total protein half-life in vivo [8]: 10.36 ± 0.074 h
total protein half-life in vivo [9]: 5.31 ± 0.43 h
total protein half-life in vivo [10]: 11.5 ± 0.59 h

MFLIITRDTMFFTAMKNILSKGNVVHIQNEEEIDVMLHQNAFVIIDTLMNNVFHSNFLTQIERLKPVHVIIFSPFNIKRCLGKVPVTFVPRTITIIDFVALINGSYCSVPEAAVSLSRKQHQVLSCIANQMTTEDILEKLKISLKTFYCHKHNIMMILNLKRINELVRHQHIDYLV
total protein half-life in vivo [1]: 3.86 ± 0.062 h
total protein half-life in vivo [11]: 3.81 h
total protein half-life in vivo [12]: 3.24 ± 0.28 h
total protein half-life in vivo [2]: 3.74 ± 0.092 h
total protein half-life in vivo [3]: 3.036 ± 0.0077 h
total protein half-life in vivo [7]: 2.94 ± 0.13 h
total protein half-life in vivo [8]: 8.12 h
total protein half-life in vivo [10]: 4.78 h

MFLINGHKQESLAVSDRATQFGDGCFTTARVIDGKVSLLSAHIQRLQDACQRLMISCDFWPQLEQEMKTLAAEQQNGVLKVVISRGSGGRGYSTLNSGPATRILSVTAYPAHYDRLRNEGITLALSPVRLGRNPHLAGIKHLNRLEQVLIRSHLEQTNADEALVLDSEGWVTECCAANLFWRKGNVVYTPRLDQAGVNGIMRQFCIRLLAQSSYQLVEVQASLEESLQADEMVICNALMPVMPVCACGDVSFSSATLYEYLAPLCERPN
total protein half-life in vivo [1]: 5.13 ± 0.82 h
total protein half-life in vivo [11]: 3.87 ± 0.15 h
total protein half-life in vivo [2]: 4.279 ± 0.035 h
total protein half-life in vivo [3]: 3.89 ± 0.18 h
total protein half-life in vivo [4]: 3.04 ± 0.24 h
total protein half-life in vivo [5]: 5.58 ± 0.27 h
total protein half-life in vivo [6]: 10.9 ± 0.86 h
total protein half-life in vivo [7]: 3.82 ± 0.069 h
total protein half-life in vivo [8]: 6.33 ± 0.35 h
total protein half-life in vivo [9]: 6.45 ± 1.4 h
total protein half-life in vivo [10]: 10.7 ± 1 h

MFLVDSHCHLDGLDYESLHKDVDDVLAKAAARDVKFCLAVATTLPGYLHMRDLVGERDNVVFSCGVHPLNQNDPYDVEDLRRLAAEEGVVALGETGLDYYYTPETKVRQQESFIHHIQIGRELNKPVIVHTRDARADTLAILREEKVTDCGGVLHCFTEDRETAGKLLDLGFYISFSGIVTFRNAEQLRDAARYVPLDRLLVETDSPYLAPVPHRGKENQPAMVRDVAEYMAVLKGVAVEELAQVTTDNFARLFHIDASRLQSIR [P0AFQ7]
total protein half-life in vivo [1]: 4.81 ± 0.12 h
total protein half-life in vivo [11]: 3.33 ± 0.04 h
total protein half-life in vivo [12]: 3.06 ± 0.22 h
total protein half-life in vivo [2]: 3.76 ± 0.27 h
total protein half-life in vivo [3]: 2.97 ± 0.21 h
total protein half-life in vivo [4]: 2.46 ± 0.053 h
total protein half-life in vivo [5]: 4.73 ± 0.61 h
total protein half-life in vivo [6]: 9.89 ± 2.7 h
total protein half-life in vivo [7]: 3.63 ± 0.31 h
total protein half-life in vivo [8]: 5.34 ± 1.1 h
total protein half-life in vivo [9]: 4.39 ± 0.14 h
total protein half-life in vivo [10]: 7.55 ± 0.79 h

MFNGRPFPVDAFPKIIRNAIYEVEQHTQAPQGLIAASALGVISLACQNRIDVCRLNNLRGPVSLFLMTLAESGERKSTVDKLLMKPLYQLEEDLFEKYTHDLTAWRNDEAIFNIEKKALMSKLKSDIRRNKDHLATNERLKELLTTNPKAPVRFKFLFNDATPAAIKAHLCGHWRSVGIMSDEAGIIFNGYTLNELPFINKMWDGSIFTVERKNEPEKLIRDARITLSLMVQPNVFKGYIDRKGDMAKGIGFFARCLMCQPASTQGNRKISNPIFSNEHLPVFHQRLMEIVNESIIKINENNRICLRFSAEAERHWIEFYNQVESEMRMIGLLYDFKDYASKMAENMARLAALLHYFSGDGGDISVTAVKAAVEIVAWYIEEYIRLFSKKEEFSLDVSEADELYCWIKDYCTQKFSSCIKKNIILQFGPNKFRNRDKANELIRILISQNKIFISSWGKTKIINITHCVF
total protein half-life in vivo [1]: 4.5 h

MFNNILVVCVGNICRSPTAERLLQRYHPELKVESAGLGALVGKGADPTAISVAAEHQLSLEGHCARQISRRLCRNYDLILTMEKRHIERLCEMAPEMRGKVMLFGHWDNECEIPDPYRKSRETFAAVYTLLERSARQWAQALNAEQV [P0AAB2]
total protein half-life in vivo [1]: 5.46 h
total protein half-life in vivo [2]: 1.13 h

MFNRIRISTTLFLILILCGILQIGSNGMSFWAFRDDLQRLNQVEQSNQQRAALAQTRAVMLQASTALNKAGTLTALSYPADDIKTLMTTARASLTQSTTLFKSFMAMTAGNEHVRGLQKETEKSFARWHNDLEHQATWLESNQLSDFLTAPVQGSQNAFDVNFEAWQLEINHVLEAASAQSQRNYQISALVFISMIIVAAIYISSALWWTRKMIVQPLAIIGSHFDSIAAGNLARPIAVYGRNEITAIFASLKTMQQALRGTVSDVRKGSQEMHIGIAEIVAGNNDLSSRTEQQAASLAQTAASMEQLTATVGQNADNARQASELAKNAATTAQAGGVQVSTMTHTMQEIATSSQKIGDIISVIDGIAFQTNILALNAAVEAARAGEQGRGFAVVAGEVRNLASRSAQAAKEIKGLIEESVNRVQQGSKLVNNAAATMIDIVSSVTRVNDIMGEIASASEEQQRGIEQVAQAVSQMDQVTQQNASLVEEAAVATEQLANQADHLSSRVAVFTLEEHEVARHESVQLQIAPVVS
total protein half-life in vivo [11]: 6.16 h
total protein half-life in vivo [3]: > 8 h
total protein half-life in vivo [4]: 1.87 ± 0.38 h
total protein half-life in vivo [5]: 3.01 ± 0.33 h
total protein half-life in vivo [6]: 4.13 ± 0.71 h

MFNRPNRNDVDDGVQDIQNDVNQLADSLESVLKSWGSDAKGEAEAARSKAQALLKETRARMHGRTRVQQAARDAVGCADSFVRERPWCSVGTAAAVGIFIGALLSMRKS [P0ADQ7]
total protein half-life in vivo [1]: 5.92 ± 0.068 h
total protein half-life in vivo [12]: 7.51 ± 0.67 h
total protein half-life in vivo [3]: 4.83 ± 0.087 h
total protein half-life in vivo [4]: 2.37 ± 0.46 h
total protein half-life in vivo [5]: 5.79 ± 0.34 h
total protein half-life in vivo [6]: 9.97 ± 1.7 h
total protein half-life in vivo [7]: 5.55 ± 0.094 h
total protein half-life in vivo [8]: 11.3 ± 1.4 h
total protein half-life in vivo [9]: 5.17 ± 0.21 h
total protein half-life in vivo [10]: 10.8 ± 0.18 h

MFPFRRNVLAFAALLALSSPVLAGKLAIVIDDFGYRPHNENQVLAMPSAISVAVLPDSPHAREMATKAHNSGHEVLIHLPMAPLSKQPLEKNTLRPEMSSDEIERIIRSAVNNVPYAVGINNHMGSKMTSNLFGMQKVMQALERYNLYFLDSVTIGNTQAMRAAQGTGVKVIKRKVFLDDSQNEADIRVQFNRAIDLARRNGSTIAIGHPHPATVRVLQQMVYNLPPDITLVKASSLLNEPQVDTSTPPKNAVPDAPRNPFRGVKLCKPKKPIEPVYANRFFEVLSESISQSTLIVYFQHQWQGWGKQPEAAKFNASAN
total protein half-life in vivo [1]: 5.42 ± 0.15 h
total protein half-life in vivo [11]: 6.23 h
total protein half-life in vivo [12]: 6.09 ± 0.91 h
total protein half-life in vivo [3]: 4.79 h
total protein half-life in vivo [4]: 3.38 h
total protein half-life in vivo [6]: 11.2 ± 1.3 h
total protein half-life in vivo [7]: 6.68 ± 0.97 h
total protein half-life in vivo [8]: 9.34 h
total protein half-life in vivo [10]: 8.02 h

MFPPMWRRLIYHPDINYALRQTLVLCLPVAVGLMLGELRFGLLFSLVPACCNIAGLDTPHKRFFKRLIIGASLFATCSLLTQLLLAKDVPLPFLLTGLTLVLGVTAELGPLHAKLLPASLLAAIFTLSLAGYMPVWEPLLIYALGTLWYGLFNWFWFWIWREQPLRESLSLLYRELADYCEAKYSLLTQHTDPEKALPPLLVRQQKAVDLITQCYQQMHMLSAQNNTDYKRMLRIFQEALDLQEHISVSLHQPEEVQKLVERSHAEEVIRWNAQTVAARLRVLADDILYHRLPTRFTMEKQIGALEKIARQHPDNPVGQFCYWHFSRIARVLRTQKPLYARDLLADKQRRMPLLPALKSYLSLKSPALRNAGRLSVMLSVASLMGTALHLPKSYWILMTVLLVTQNGYGATRLRIVNRSVGTVVGLIIAGVALHFKIPEGYTLTLMLITTLASYLILRKNYGWATVGFTITAVYTLQLLWLNGEQYILPRLIDTIIGCLIAFGGTVWLWPQWQSGLLRKNAHDALEAYQEAIRLILSEDPQPTPLAWQRMRVNQAHNTLYNSLNQAMQEPAFNSHYLADMKLWVTHSQFIVEHINAMTTLAREHRALPPELAQEYLQSCEIAIQRCQQRLEYDEPGSSGDANIMDAPEMQPHEGAAGTLEQHLQRVIGHLNTMHTISSMAWRQRPHHGIWLSRKLRDSKA
total protein half-life in vivo [1]: 6.2 ± 0.17 h
total protein half-life in vivo [11]: 6.9 h
total protein half-life in vivo [12]: 4.97 ± 0.47 h
total protein half-life in vivo [2]: 5.47 ± 0.38 h
total protein half-life in vivo [3]: 5.02 ± 0.33 h
total protein half-life in vivo [4]: > 4 h
total protein half-life in vivo [5]: 5.87 h
total protein half-life in vivo [6]: 13.4 ± 0.3 h
total protein half-life in vivo [7]: 6.05 ± 0.55 h
total protein half-life in vivo [9]: 6.24 ± 0.091 h
total protein half-life in vivo [10]: 12.2 ± 0.44 h

MFQDNPLLAQLKQQLHSQTPRAEGVVKATEKGFGFLEVDAQKSYFIPPPQMKKVMHGDRIIAVIHSEKERESAEPEELVEPFLTRFVGKVQGKNDRLAIVPDHPLLKDAIPCRAARGLNHEFKEGDWAVAEMRRHPLKGDRSFYAELTQYITFGDDHFVPWWVTLARHNLEKEAPDGVATEMLDEGLVREDLTALDFVTIDSASTEDMDDALFAKALPDDKLQLIVAIADPTAWIAEGSKLDKAAKIRAFTNYLPGFNIPMLPRELSDDLCSLRANEVRPVLACRMTLSADGTIEDNIEFFAATIESKAKLVYDQVSDWLENTGDWQPESEAIAEQVRLLAQICQRRGEWRHNHALVFKDRPDYRFILGEKGEVLDIVAEPRRIANRIVEEAMIAANICAARVLRDKLGFGIYNVHMGFDPANADALAALLKTHGLHVDAEEVLTLDGFCKLRRELDAQPTGFLDSRIRRFQSFAEISTEPGPHFGLGLEAYATWTSPIRKYGDMINHRLLKAVIKGETATRPQDEITVQMAERRRLNRMAERDVGDWLYARFLKDKAGTDTRFAAEIVDISRGGMRVRLVDNGAIAFIPAPFLHAVRDELVCSQENGTVQIKGETVYKVTDVIDVTIAEVRMETRSIIARPVA
total protein half-life in vivo [1]: 6.36 ± 1.1 h
total protein half-life in vivo [11]: 5.31 ± 0.54 h
total protein half-life in vivo [12]: 4.41 ± 0.31 h
total protein half-life in vivo [2]: 4.57 ± 0.42 h
total protein half-life in vivo [3]: 3.92 ± 0.095 h
total protein half-life in vivo [4]: 2.74 ± 0.38 h
total protein half-life in vivo [5]: 5.8 ± 0.41 h
total protein half-life in vivo [6]: 10 ± 3.6 h
total protein half-life in vivo [7]: 4.3 ± 0.15 h
total protein half-life in vivo [8]: 7.65 ± 0.77 h
total protein half-life in vivo [9]: 4.66 ± 0.14 h
total protein half-life in vivo [10]: 8.07 ± 0.19 h
